{
  "source": "patent US20220347267A1",
  "about": "“METHODS TO IMPROVE PATIENT RESPONSE TO IMMUNE CHECKPOINT INHIBITORS AND FUNCTIONAL TESTS TO PREDICT RESPONSE” (Biomarker Strategies, LLC, priority 2019, published 2022)",
  "molecules": {"B1": {"name": "IFNγ: human IFNγ, modulator (10 ng/ml; Sigma Aldrich) (protein, UniProt P01579 24-161, looked up)", "Interferon gamma": "QDPYVKEAENLKKYFNAGHSDVADNGTLFLGILKNWKEESDRKIMQSQIVSFYFKLFKNFKDDQSIQKSVETIKEDMNVKFFNSNKKKRDDFEKLTNYSVTDLNVQRKAIHELIQVMAELSPAAKTGKRKRSQMLFRG"}},
  "format_in_all_cases": "cell-based, human",
  "key": {"H1299 cells": {"system": "H1299 cells", "experiment": "PD-L1 confocal microscopy, IFNγ stimulation", "source_text": "(§1) To obtain fluorescent specimens, similar procedures are used when compared to flow cytometry. The sample is stained with a primary antibody that is specific for a protein of interest. The primary antibody can be conjugated to a fluorescent molecule or a secondary antibody can be used that attaches to the primary antibody. For intracellular staining of cells, the specimen can be fixed and permeabilized using methanol, formalin or a fixative containing a detergent. Subsequently, the specimen is stained with primary and/or secondary antibodies. For this dataset, samples were stained for PD-L1 in suspension using the same protocol that was used for the flow cytometry dataset. The protocol used was as follows:\n(§2) Samples (150 uL per tube) were first incubated with a blocking reagent (BD cat #564219, Lot #9305316) at 1:20 for 15 min at room temperature. Alexa 488-conjugated PD-L1 antibody (CST cat #25048, Lot #2) and Alexa 488-conjugated isotype antibody (CST cat #2975, Lot #16) were added to experimental samples and isotype control samples, respectively, at a manufacturer recommended dilution of 1:50 and the samples were incubated for 30 min at room temperature. Other fluorophore-conjugates and PD-L1 antibodies, including those targeting different epitopes, can be readily used. Additionally, antibodies detecting other biomarkers with appropriate processing (e.g. permeabilization of cells) to predict response (e.g. p-STAT-1) can be used. Following the incubation with an antibody, 1 mL of 2% FBS in PBS was added to each tube to dilute the antibody. Samples were then centrifuged at 200 rcf for 5 min. Supernatant was carefully aspirated and 200 uL of 10% neutral buffered formalin (NBF) was added. Samples were then fixed for 10 min at room temperature. NBF was diluted with 1 mL of 2% FBS in PBS and the samples were centrifuged at 200 rcf for 5 min. Supernatant was aspirated and the cells were resuspended in 0.5 mL of 2% FBS in PBS for flow cytometric analysis. In this experiment, 10% NBF was used to fix cells, but other fixatives, for example, 4% paraformaldehyde can be used. For localization experiments an anti-phosphotyrosine antibody, anti-human/mouse, PE-Vio® 770 (Miltenyi Biotec, Cat #130-109-112) and an anti-PD-L1 antibody, anti-human, Brilliant Violet 650 (BV650; BD Biosciences, Cat #563740) were used. […]\n(§3) PD-L1 was assessed in four cell lines (FIG. 35A). PD-L1 was quantified by analyzing FITC-PD-L1 using an 8-bit photomultiplier tube and quantified as raw arbitrary units (FIG. 35B). The PD-L1 expression of the four cell lines was quantified in treated and untreated conditions. […] Thus, PD-L1 expression can be measured qualitatively and quantitatively using confocal microscopy and other fluorescent microscopy techniques."}, "H1650 cells": {"system": "H1650 cells", "experiment": "PD-L1 confocal microscopy, IFNγ stimulation", "source_text": "as §1, §2, §3"}, "H460 cells": {"system": "H460 cells", "experiment": "PD-L1 confocal microscopy, IFNγ stimulation", "source_text": "as §1, §2, §3"}, "SKMES1 cells [1]": {"system": "SKMES1 cells", "experiment": "PD-L1 confocal microscopy, IFNγ stimulation", "source_text": "as §1, §2, §3"}, "SKMES1 cells [2]": {"system": "SKMES1 cells", "experiment": "Western blot of secreted and intact PDL1 in media and lysate", "settings": "10 ng/mL IFNg for 24 h, concentrated media and lysate, antibody clone E1J2J", "protocol": "Different forms of PDL1 can be expressed at baseline as well as after modulation, and the abundance of each form will impact response to therapy. The two major forms are membrane bound and soluble (secreted or intracellular compartments). The relative ratios of the forms, and their cellular locations, can be changed by a modulator and will require different strategies for optimal ICI therapy. As way of example, the cell line SKMES1 was treated with vehicle or 10 ng/mL IFNg for 24 h. After treatment, media was collected and concentrated using an Amicon ultra 0.5 mL centrifugal filter with a 10 kDa cutoff. The retentate, containing proteins >10 kDa, was recovered in a clean tube at 14000 rpm for 5 min. Simultaneously, lysates of the same cells were made. PDL1 was then detected using 10% Tris-Glycine SDS gels and PVDF membranes. The western blot was carried out using 5% non-fat dry milk in TBST for 1h, followed by incubation with primary antibody against PDL1 (clone E1J2J; raised to the extracellular portion of PDL1) in 2% BSA for overnight, then anti-rabbit HRP secondary antibody before using a chemiluminescent reagent (Bio-Rad). […] Thus, by using westerns where the intact and secreted forms of PDL1 are first resolved by MW and different types of sample/resource material (media vs lysate or blood/plasma vs tumor), the response to therapy can be predicted. […]"}},
  "data": [
    {"molecule": "B1", "values": [
      {"measurement": "PD-L1 expression by confocal microscopy, untreated and IFNγ treated", "setting": "H1299 cells", "result": "negative"},
      {"measurement": "PD-L1 expression by confocal microscopy, untreated and IFNγ treated", "setting": "H1650 cells", "result": "negative"},
      {"measurement": "PD-L1 expression by confocal microscopy, untreated and IFNγ treated", "setting": "H460 cells", "result": "adaptive expression"},
      {"measurement": "PD-L1 expression by confocal microscopy, untreated and IFNγ treated", "setting": "SKMES1 cells [1]", "result": "innate expression"},
      {"measurement": "expression of secreted and intact PDL1", "setting": "SKMES1 cells [2]", "result": "detected the expression of secreted and intact PDL1"}
    ]}
  ]
}
